Read-outs that look alike come from different tables or passages of the source. Each block holds one molecule with its values, some of them ahead of it. No end group written: not given here.
What was measured:
[1] = molecular target: T1, HLA-DR1 (DR1) (Homo sapiens, UniProt P01903+P01911, A100R/D57E/F55L/F60I/F76Y/I96L/L162R/M171V/P40L/Q125E/R42F/V115G/Y59C); assay: Fluorescent peptide association to soluble DR1 (spin-column separation, fluorescence read-out); format: binding
[2] = molecular target: T1, HLA-DR1 (DR1); assay: Dissociation of fluorescent peptide/DR1 complexes; format: binding; settings: for DM sensitivity of DR1/peptide complex (dissociation in the presence of DM): 10 hours
[3] = tested on: Mags.DO5 monoclonal antibody; assay: SPR binding to immobilized Mags.DO5 antibody surface
Procedure: Purified DM/DO complexes were further evaluated by binding to anti-HA and anti-His antibody immobilized chip surfaces using BIAcore Surface Plasmon Resonance (SPR) instrument (Fig. 1C and D). […] To ensure that the observed binding was due to binding of DM/DO to Mags.DO5 mAb, we preincubated DM/DO complexes with soluble Mags.DO5 prior to injecting it over Mags.DO5 immobilized surface.

[4] = tested on: HLA-DO (DO); assay: SPR binding to DO captured on anti-His antibody surface; design: species or system human; settings: soluble DM 4 µM injected over DO captured by anti-His antibody; pH 5.5, 27°C
[5] = molecular target: soluble HLA-DR1 (human)
[6] = molecular target: recombinant soluble HLA-DO (human) (UniProt P06340); assay: SPR; DO (Ni-NTA purified) captured on anti-His antibody CM5 chip; analyte 4 µM; citrate-phosphate pH 5.5, 150 mM NaCl, 0.005% Tween-20; 27°C, 5–10 µL/min
[7] = molecular target: co-expressed DM/DO complex (human) (UniProt P06340); assay: SPR
[8] = tested on: HLA-DM (DM); settings: DO solution 5 µM over DM captured by anti-FLAG antibody; pH 5.5, 27°C
[9] = molecular target: soluble HLA-DR1 (human); assay: fluorescent peptide association kinetics (Sephadex G-50 spin column, fluorescence); as a1 with 4 µM DO added
[10] = molecular target: soluble HLA-DR1 (human); assay: fluorescent peptide association kinetics (Sephadex G-50 spin column, fluorescence); as a1 with 1 µM DM added
[11] = molecular target: soluble HLA-DR1 (human); assay: fluorescent peptide association kinetics (Sephadex G-50 spin column, fluorescence); as a1 with 1 µM DM and 4 µM DO added
[12] = molecular target: soluble HLA-DR1 (human); assay: fluorescent peptide association kinetics (Sephadex G-50 spin column, fluorescence); DR1 or DR1βG86Y 1 µM with fluorescent peptide 30 µM, no accessory molecules; 37°C, citrate-phosphate buffer pH 5.0; up to 10 h; unbound peptide removed on G-50 spin columns

Molecule: CAGFKGEQGPKGEP [CII(259–273), derived from Type II Collagen peptide used to induce arthritis in mice models]
Observed initial binding rate, DR1 alone ([1]; DR1 1 µM, fluorescent peptide 30 µM, 37°C, Citrate-Phosphate buffer pH 5.0, slope of linear fit of early data points (~1 hour), no accessory molecules): 500 Arbitrary Fluorescence Units min^−1
Observed initial binding rate, + DM and DO ([1]; DR1 1 µM, peptide 30 µM, DM 1 µM and DO 4 µM, 37°C, pH 5.0, initial rate over 1 hour): 1002 Arbitrary Fluorescence Units min^−1
Observed initial binding rate, + DM ([1]; DR1 1 µM, peptide 30 µM, DM 1 µM, 37°C, pH 5.0, initial rate over 1 hour): 1593 Arbitrary Fluorescence Units min^−1
Observed initial binding rate, + DO ([1]; DR1 1 µM, peptide 30 µM, DO 4 µM, 37°C, pH 5.0, initial rate over 1 hour): 137 Arbitrary Fluorescence Units min^−1
Effect of DO on peptide binding to peptide-receptive DR1 (DR-receptive) ([1]; DR1 pre-incubated with unlabeled HA(anchorless) for three days, no DM): reduced
Effect of DO (or DM+DO) on dissociation of peptide from DR1 ([2]; DO 4 µM, with or without DM 1 µM, 10 hour kinetic experiment, pH 5.0, 37°C): no effect
DM sensitivity of DR1/peptide complex (dissociation in the presence of DM) ([2]; complexes formed over 3 days at 37°C, DM 1 µM, competing HA(306–318) 50 µM, pH 5.0, 37°C): DM-sensitivity

Molecule: DM/DO: co-expressed soluble DM/DO complex purified by Ni-NTA or Mags.DO5
SPR binding to Mags.DO5 mAb immobilized surface after preincubation with soluble Mags.DO5 ([3]; DM/DO preincubated with soluble Mags.DO5 prior to injection): about 100 RU
SPR binding to Mags.DO5 mAb immobilized surface ([3]; Ni-NTA purified DM/DO complexes, pH 5.5 running buffer, 27°C): approximately 600 RU

Molecule: H5N1-HA1(259–274) peptide
observed initial binding rate (+ DM and DO) (Arbitrary Fluorescence Units min^-1) [5]: 2200
observed initial binding rate (+ DM) (Arbitrary Fluorescence Units min^-1) [5]: 665
observed initial binding rate (+ DO) (Arbitrary Fluorescence Units min^-1) [5]: 257

Molecule: HA(306–318) peptide
observed initial binding rate (+ DM and DO) (Arbitrary Fluorescence Units min^-1) [5]: 1780
observed initial binding rate (+ DM) (Arbitrary Fluorescence Units min^-1) [5]: 463
observed initial binding rate (+ DO) (Arbitrary Fluorescence Units min^-1) [5]: 523

Molecule: HA(306–318): derived from Texas 77 flu strain HA protein peptide; immunodominant HLA-DR1 binding peptide (CPKYVKQNTLKLAT)
Effect of DO on peptide binding to peptide-receptive DR1 (DR-receptive) [1]: enhanced
Enhancement of initial binding rate by DO compared to DR1 alone [1]: 3–4 folds
Effect of DO on maximum binding of peptide to DR1 ([1]; pH 5): increasing the binding maxima
Observed initial binding rate, + DM ([1]; pH 5): 463 Arbitrary Fluorescence Units min^−1
Observed initial binding rate, + DM and DO ([1]; pH 5): 1779 Arbitrary Fluorescence Units min^−1
Observed initial binding rate, + DO ([1]; pH 5): 523 Arbitrary Fluorescence Units min^−1
Observed initial binding rate, DR1 alone ([1]; pH 5): 132 Arbitrary Fluorescence Units min^−1
Effect of DO (or DM+DO) on dissociation of peptide from DR1 ([2]; pH 5): did not affect
DM sensitivity of DR1/peptide complex (dissociation in the presence of DM) ([2]; pH 5.0, 37°C): DM-resistant

The next lines start with the values.

SPR binding of DM to captured DO [4]: 490 RU
Molecule: DM: soluble HLA-DM purified on M2 FLAG affinity column

response at 4 µM [6]: 100 RU
Molecule: mutant DR1, DR1βG86Y (from UniProt P01903 26-216) (receptor)

SPR binding response [7]: 337 RU
Molecule: soluble HLA-DR1 (from UniProt P01903 26-216) (receptor)

SPR maximum binding of DO to immobilized DM [8]: 500 RU
B1: DO: recombinant soluble HLA-DO heterodimer with leucine zipper, His- and HA-tags, expressed in Hi5 insect cells (protein)
chain 1: TKADHMGSYGPAFYQSYGASGQFTHEFDEEQLFSVDLKKSEAVWRLPEFGDFARFDPQGGLAGIAAIKAHLDILVERSNRSRAINVPPRVTVLPKSRVELGQPNILICIVDNIFPPVINITWLRNGQTVTEGVAQTSFYSQPDHLFRKFHYLPFVPSAEDVYDCQVEHWGLDAPLLRHWELQVPIPPPDAME
chain 2: TDSPEDFVIQAKADCYFTNGTEKVQFVVRFIFNLEEYVRFDSDVGMFVALTKLGQPDAEQWNSRLDLLERSRQAVDGVCRHNYRLGAPFTVGRKVQPEVTVYPERTPLLHQHNLLHCSVTGFYPGDIKIKWFLNGQEERAGVMSTGPIRNGDWTFQTVVMLEMTPELGHVYTCLVDHSSLLSPVSVEWRAQSEYSWRK
modifications: left off: leucine zipper (acidic or basic chain, which not stated; flanked by spacers), C-terminal, state not stated | His tag, C-terminal, kept | leucine zipper (acidic or basic chain, which not stat

observed initial binding rate (+ DO) (Arbitrary Fluorescence Units min^-1) [9]: 137
observed initial binding rate (+ DM) (Arbitrary Fluorescence Units min^-1) [10]: 1590
observed initial binding rate (+ DM and DO) (Arbitrary Fluorescence Units min^-1) [11]: 1000
observed initial binding rate (Arbitrary Fluorescence Units min^-1) [12]: 500
Molecule: fluorescein-CAGFKGEQGPKGEP [CII(259–273) peptide]

Reference: PMC3738515, “HLA-DO as the Optimizer of Epitope Selection for MHC Class II Antigen Presentation” (PLoS ONE, 2013)
